Experiment [1] deals with insulin receptor isoform-A (IR-A). In words: competitive ELISA on IR-A; cold ligand 1-500 nM against 0.8 nM biotinylated insulin. On the technique in general: An ELISA detects its analyte on a solid surface through an enzyme-linked reagent.
Experiment [2] deals with domain 11 of the CI-M6P/IGF2R. Kind of experiment: competitive ELISA on domain 11 of CI-M6P/IGF2R; cold ligand 1-500 nM against 8 nM biotinylated IGF2.

One may read the IC50 as the point on the concentration scale where inhibition reaches its midpoint. Read a high IC50 as a need for much substance. Regarding “IDS.IGF2 (construct 2): IDS tagged C-terminally with aa 1, 8-67 of the mature human IGF2 (from UniProt P22304)”, in experiment [1], the IC50 came out at 251 nM and the fold lower affinity than Δ1-6.IGF2 peptide was determined as 150 fold. Besides, in experiment [2], the IC50 came to 61.7 nM and the times increased IC50 against Δ1-6.IGF2 peptide came out at 12.3 times.

For the substance “IGF2 peptide carrying a mutation of AA 1-6 (Δ1-6.IGF2 peptide) (from UniProt P01344) (ligand)”, the IC50 in experiment [1] is 1.61 nM; in experiment [2], 5.01 nM.

The values above are taken from patent US20260152730A1.
